Experimental data from PMC7083845.

Assays:
[1] = biological target: Cub fusion of mature GENOMES UNCOUPLED 4 (GUN4) (Arabidopsis thaliana) (UniProt Q9LX31)
[2] = biological target: Cub fusion of mature GENOMES UNCOUPLED 4 (GUN4) (Arabidopsis thaliana) (UniProt Q9LX31); remark: listed apart in the source

Sequence of UniProt Q9LX31 (Q9LX31 70-265): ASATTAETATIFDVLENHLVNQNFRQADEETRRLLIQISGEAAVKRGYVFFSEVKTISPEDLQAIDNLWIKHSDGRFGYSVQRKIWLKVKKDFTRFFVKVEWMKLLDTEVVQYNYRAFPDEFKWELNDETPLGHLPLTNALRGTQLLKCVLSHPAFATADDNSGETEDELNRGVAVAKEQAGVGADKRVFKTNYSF

in vitro MgCh activity (MgP formed, HPLC) of recombinant MgCh subunits with His-GUN4: thylakoids from BCM1-OX3/gun4-1 against thylakoids from bcm1-3 gun4-1 seedlings [1]: 12%
in vitro MgCh activity in 0.15 mM β-DM: 1 μM purified His-BCM1 against assays without BCM1 or with 1 μM GST [2]: 3 fold
in vitro MgCh activity with His-GUN4 and the three MgCh subunits: yeast membranes holding His-BCM1 against control membranes without BCM1 [2]: 12%
Substance: NubG-BCM1 (mature BALANCE of CHLOROPHYLL METABOLISM 1) (natural protein)
